Values of other authors, collected in article PMC3179904.

Molecular target: CheA (Escherichia coli) (UniProt P07363)
Chain of UniProt P07363 (P07363 whole entry): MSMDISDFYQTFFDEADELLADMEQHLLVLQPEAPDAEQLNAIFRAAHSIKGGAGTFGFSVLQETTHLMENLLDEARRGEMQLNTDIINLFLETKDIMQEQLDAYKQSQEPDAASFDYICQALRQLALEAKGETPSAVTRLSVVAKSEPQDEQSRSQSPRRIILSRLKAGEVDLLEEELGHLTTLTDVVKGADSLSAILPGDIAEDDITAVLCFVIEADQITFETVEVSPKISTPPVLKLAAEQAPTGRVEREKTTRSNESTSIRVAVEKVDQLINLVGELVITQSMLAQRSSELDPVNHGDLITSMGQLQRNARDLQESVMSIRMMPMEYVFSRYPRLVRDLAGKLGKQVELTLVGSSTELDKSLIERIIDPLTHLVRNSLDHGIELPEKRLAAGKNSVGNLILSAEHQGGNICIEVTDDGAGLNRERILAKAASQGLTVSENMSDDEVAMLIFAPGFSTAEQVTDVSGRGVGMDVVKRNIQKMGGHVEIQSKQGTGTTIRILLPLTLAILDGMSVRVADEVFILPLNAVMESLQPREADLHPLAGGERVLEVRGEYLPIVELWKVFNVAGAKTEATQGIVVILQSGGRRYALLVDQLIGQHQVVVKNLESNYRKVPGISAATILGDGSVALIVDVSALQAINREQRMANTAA

In the case of CheW (from UniProt P0A964), the Kd is given as 17 µM.
